Test [1] has as its target recombinant His-tagged HIV-1 gp120 Q769.h5 (Clade A) (HIV-1 strain Q769.h5).
For test [2] the target is unchanged. The experiment in a line: SPR, His-tagged gp120 on NTA chip (FIG. 7).

For the substance “AvFc lectibody (Avaren fused via a linker to the Fc region of human IgG1) (Fc fusion)”, in test [1], the Kd came to 0.0042 µM. Further, the fold increase in affinity compared to AH in test [2] came out at 10 fold. Regarding “actinohivin (AH), wild type (from UniProt Q9KWN0 47-160)”, the Kd in test [1] came to 0.0296 µM.

The values above are taken from US20230174595A1.
